Experiments:
[1] = system: Fab clone 12 (synthetic), PDB:6B14_1+PDB:6B3K_2; assay: filter binding
[2] = system: Fab clone 17 (synthetic), PDB:6B14_1+PDB:6B3K_2; assay: filter binding
[3] = system: Fab clone 1 (synthetic), PDB:6B14_1+PDB:6B3K_2; assay: filter binding
[4] = system: Fab clone 9 (synthetic), PDB:6B14_1+PDB:6B3K_2; assay: filter binding
[5] = system: Fab clone 5 (synthetic), PDB:6B14_1+PDB:6B3K_2; assay: filter binding
[6] = system: Fab clone 10 (Fab 10) (synthetic), PDB:6B14_1+PDB:6B3K_2; assay: filter binding
[7] = system: Fab BL3-6 S97N (synthetic), PDB:6B14_1+PDB:6B14_2; assay: filter binding
[8] = system: Fab clone 14 (synthetic), PDB:6B14_1+PDB:6B3K_2; assay: filter binding
[9] = system: Fab clone 4 (synthetic), PDB:6B14_1+PDB:6B3K_2; assay: filter binding
[10] = system: Fab clone 18 (synthetic), PDB:6B14_1+PDB:6B3K_2; assay: filter binding
[11] = system: Fab clone 11 (synthetic), PDB:6B14_1+PDB:6B3K_2; assay: filter binding
[12] = system: Fab clone 3 (Fab 3) (synthetic), PDB:6B14_1+PDB:6B3K_2; assay: filter binding
[13] = system: Fab clone 15 (synthetic), PDB:6B14_1+PDB:6B3K_2; assay: filter binding
[14] = system: Fab clone 6 (synthetic), PDB:6B14_1+PDB:6B3K_2; assay: filter binding
[15] = system: Fab clone 13 (synthetic), PDB:6B14_1+PDB:6B3K_2; assay: filter binding
[16] = system: Fab BL3-6 (synthetic (humanized Fab4D5 framework phage library)), PDB:6B14_1+PDB:6B3K_2; assay: filter binding
[17] = system: Fab clone 2 (synthetic), PDB:6B14_1+PDB:6B3K_2; assay: filter binding
[18] = system: Fab BL3-6 (synthetic (humanized Fab4D5 framework phage library)), PDB:6B14_1+PDB:6B3K_2; assay: hydroxyl-radical footprinting

GGCGACCAUGGAAACACCAUGGUCGC [WT-RNA HP (WT BL3-6 HP)]
Kd [1]: 17 nM | Kd [2]: 21 nM | Kd [3]: 29 nM | Kd [4]: 67 nM | Kd [5]: 28 nM | Kd [6]: 28 nM | Kd [7]: 13 nM | Kd [8]: 58 nM | Kd [9]: 28 nM | Kd [10]: 22 nM | Kd [11]: 13 nM | Kd [12]: 25 nM | Kd [13]: 17 nM | Kd [14]: 52 nM | Kd [15]: 25 nM

GUCCAGUAGGAACACUAUACUACUGGAUAAUCAAAGACAAAUCUGCCCGAAGGGCUUGAGAACAUCGAAACACGAUGCAGAGGUGGCAGCCUCCGGUGGGUUAAAACCCAACGUUCUCAACAAUAGUGA [WT-BLP]
Kd [1]: 37 nM | Kd [2]: 42 nM | Kd [3]: 26 nM | Kd [4]: 66 nM | Kd [16]: 120 nM | Kd [5]: 20 nM | Kd [17]: 50 nM | Kd [6]: 30 nM | Kd [7]: 5 nM | Kd [8]: 45 nM | Kd [9]: 29 nM | Kd [10]: 51 nM | Kd [11]: 37 nM | Kd [12]: 28 nM | Kd [13]: 34 nM | Kd [14]: 54 nM | Kd [15]: 36 nM

UGCGACCAUGGUGAGACCCGCCAUGGUCGC [N9RNA1 HP (AM HP)]
Kd [18]: 30 nM | Kd [1]: 7 nM | Kd [2]: 8 nM | Kd [3]: 11 nM | Kd [4]: 13 nM | Kd [5]: 8 nM | Kd [17]: 10 nM | Kd [6]: 9 nM | Kd [7]: 9 nM | Kd [9]: 11 nM | Kd [10]: 9 nM | Kd [11]: 9 nM | Kd [12]: 9 nM | Kd [13]: 10 nM | Kd [14]: 7 nM | Kd [15]: 11 nM
